Values of other authors, collected in publication PMC12462375.

Experiments:
basigin (Homo sapiens) = basigin (Homo sapiens) (UniProt P35613)
CD47 (Homo sapiens) = CD47 (Homo sapiens) (UniProt Q08722)

Sequence of UniProt P35613 (P35613 22-325): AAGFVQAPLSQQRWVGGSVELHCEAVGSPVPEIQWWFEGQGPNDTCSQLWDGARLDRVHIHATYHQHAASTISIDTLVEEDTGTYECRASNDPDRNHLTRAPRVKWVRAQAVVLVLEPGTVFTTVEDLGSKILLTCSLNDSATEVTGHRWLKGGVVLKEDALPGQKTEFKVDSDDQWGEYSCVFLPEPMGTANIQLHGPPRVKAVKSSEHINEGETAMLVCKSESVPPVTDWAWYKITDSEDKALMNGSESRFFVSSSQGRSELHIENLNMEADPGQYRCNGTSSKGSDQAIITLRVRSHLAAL

Substance | Kd (basigin (Homo sapiens)) [nM] | Kd (CD47 (Homo sapiens)) [nM]
PfRH5 (from UniProt Q8IFM5) | 1100 | –
SIRPα (PDB 4CMM) (from UniProt P78324) | – | 740
